Measured values as given in patent publication EP4596582A1 (Sichuan Kelun-Biotech Biopharmaceutical Co., Ltd., dated 2025).

What was measured:
[1] = molecular target: T1, human B7-H3-4Ig-His protein (human, UniProt Q5ZPR3 29-466); assay: ELISA, antigen coated at 1 ug/ml (specificity panel)
T1 construct: extracellular domain; Made in HEK293-EBNA cells
T1 sequence: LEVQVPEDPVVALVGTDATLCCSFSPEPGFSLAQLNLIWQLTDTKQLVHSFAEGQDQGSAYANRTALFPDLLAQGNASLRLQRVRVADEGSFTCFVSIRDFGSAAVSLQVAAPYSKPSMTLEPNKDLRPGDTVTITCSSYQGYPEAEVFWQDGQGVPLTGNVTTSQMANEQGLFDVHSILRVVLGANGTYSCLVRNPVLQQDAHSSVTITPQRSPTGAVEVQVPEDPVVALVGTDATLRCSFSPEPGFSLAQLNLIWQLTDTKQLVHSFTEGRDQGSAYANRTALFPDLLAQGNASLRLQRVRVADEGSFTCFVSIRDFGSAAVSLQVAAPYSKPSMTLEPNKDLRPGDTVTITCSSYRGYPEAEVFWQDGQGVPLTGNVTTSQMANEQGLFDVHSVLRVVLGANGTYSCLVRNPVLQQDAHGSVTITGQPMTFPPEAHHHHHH

[2] = molecular target: T2, human B7-H3 on human tumor cells (MCF-7, HT29, NCI-N87, HCC1806, HCC827) (human, UniProt Q5ZPR3 29-534); assay: flow cytometry on NCI-N87 cells
T2 construct: whole, on cells
T2 sequence (looked up): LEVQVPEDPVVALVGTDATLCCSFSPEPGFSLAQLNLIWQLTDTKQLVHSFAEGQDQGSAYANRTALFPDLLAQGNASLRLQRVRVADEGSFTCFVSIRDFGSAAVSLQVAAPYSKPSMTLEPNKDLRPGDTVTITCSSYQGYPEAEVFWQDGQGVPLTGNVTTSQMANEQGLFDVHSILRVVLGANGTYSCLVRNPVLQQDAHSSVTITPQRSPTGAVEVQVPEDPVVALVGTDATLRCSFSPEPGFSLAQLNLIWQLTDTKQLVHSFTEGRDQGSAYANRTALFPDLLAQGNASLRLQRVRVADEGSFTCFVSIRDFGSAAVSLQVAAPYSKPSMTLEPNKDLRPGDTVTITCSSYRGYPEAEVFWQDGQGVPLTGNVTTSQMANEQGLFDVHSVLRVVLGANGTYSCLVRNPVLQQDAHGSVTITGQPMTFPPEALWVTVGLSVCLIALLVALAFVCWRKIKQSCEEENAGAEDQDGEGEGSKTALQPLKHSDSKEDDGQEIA

[3] = molecular target: T2, human B7-H3 on human tumor cells …; assay: flow cytometry on HCC827 cells
[4] = molecular target: T3, monkey B7-H3 on CHO-S cells (CHO-S-monkey B7-H3) (monkey); assay: flow cytometry on CHO-S-monkey B7-H3 cells
T3 construct: whole, on cells; also called monkey B7-H3-overexpressed cells

[5] = molecular target: T4, rat B7-H3-2Ig-His protein (rat, UniProt Q7TPB4 29-248); assay: BLI (ForteBio), antibody captured on Protein A sensor, antigen in solution
T4 construct: extracellular domain; also called rat B7-H3-his
T4 sequence: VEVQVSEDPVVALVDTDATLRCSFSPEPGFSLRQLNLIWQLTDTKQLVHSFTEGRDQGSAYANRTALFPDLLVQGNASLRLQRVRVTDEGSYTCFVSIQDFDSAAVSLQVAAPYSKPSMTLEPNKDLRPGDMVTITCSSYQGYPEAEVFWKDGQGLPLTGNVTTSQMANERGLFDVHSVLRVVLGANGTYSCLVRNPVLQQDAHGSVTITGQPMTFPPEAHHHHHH

[6] = molecular target: T5, human B7-H3-2Ig-His protein (human); assay: BLI (ForteBio), antibody captured on Protein A sensor, 1:1 global fit
T5 chain: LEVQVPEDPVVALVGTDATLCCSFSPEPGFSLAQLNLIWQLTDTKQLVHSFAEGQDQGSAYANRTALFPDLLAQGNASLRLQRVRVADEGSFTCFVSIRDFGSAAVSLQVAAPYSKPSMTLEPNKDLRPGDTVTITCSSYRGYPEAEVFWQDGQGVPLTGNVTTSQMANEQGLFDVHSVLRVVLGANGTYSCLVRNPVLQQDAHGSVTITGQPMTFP

[7] = molecular target: T6, monkey B7-H3-4Ig-His protein (monkey); assay: as above
T6 chain: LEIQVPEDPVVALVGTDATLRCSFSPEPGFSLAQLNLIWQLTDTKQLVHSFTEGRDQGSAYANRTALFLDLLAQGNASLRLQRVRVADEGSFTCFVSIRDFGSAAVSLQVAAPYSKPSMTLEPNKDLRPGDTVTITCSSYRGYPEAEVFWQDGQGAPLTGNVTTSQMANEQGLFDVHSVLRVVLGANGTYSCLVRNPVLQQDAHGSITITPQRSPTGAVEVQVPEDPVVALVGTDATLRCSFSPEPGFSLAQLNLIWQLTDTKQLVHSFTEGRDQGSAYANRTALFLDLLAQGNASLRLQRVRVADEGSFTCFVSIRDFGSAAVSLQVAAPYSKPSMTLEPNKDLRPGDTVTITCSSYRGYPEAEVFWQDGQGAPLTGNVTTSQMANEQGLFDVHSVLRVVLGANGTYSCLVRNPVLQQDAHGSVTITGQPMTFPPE

[8] = molecular target: T1, human B7-H3-4Ig-His protein; assay: as above
[9] = molecular target: T7, human B7-H3-4Ig on CHO-S cells (CHO-S-human B7-H3-4Ig) (human, UniProt Q5ZPR3 29-534); assay: cell-based or functional assay
T7 sequence (looked up): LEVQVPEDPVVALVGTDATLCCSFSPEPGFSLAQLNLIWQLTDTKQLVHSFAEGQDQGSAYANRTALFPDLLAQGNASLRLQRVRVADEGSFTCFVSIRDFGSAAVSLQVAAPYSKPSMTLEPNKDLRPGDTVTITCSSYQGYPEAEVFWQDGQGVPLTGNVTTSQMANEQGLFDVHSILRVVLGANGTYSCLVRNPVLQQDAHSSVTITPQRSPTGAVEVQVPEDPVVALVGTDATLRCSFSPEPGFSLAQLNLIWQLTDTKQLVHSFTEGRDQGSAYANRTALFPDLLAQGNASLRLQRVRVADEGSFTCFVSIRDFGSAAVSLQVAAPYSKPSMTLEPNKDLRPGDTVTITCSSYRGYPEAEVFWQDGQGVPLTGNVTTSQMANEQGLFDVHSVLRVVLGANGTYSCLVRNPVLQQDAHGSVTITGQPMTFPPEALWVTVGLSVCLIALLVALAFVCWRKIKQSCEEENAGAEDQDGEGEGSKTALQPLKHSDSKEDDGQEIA

[10] = molecular target: T2, human B7-H3 on human tumor cells …; assay: flow cytometry on HCC1806 cells
[11] = molecular target: T2, human B7-H3 on human tumor cells …; assay: cell-based or functional assay

B1: anti-human-B7-H3 human antibody 2#8890 (antibody, human IgG1, kappa, V domains shown)
VH: QVQLQESGPGLVQPSGTLSLTCAVSGGSDSSTNWWTWVRQSPGQGLEWIGEISPIGFTSYSPSLRSRVTISVDKSKTQFSLKLSSVTAADTAVYYCARDRLYFAFWGQGTLVTVSS
VL: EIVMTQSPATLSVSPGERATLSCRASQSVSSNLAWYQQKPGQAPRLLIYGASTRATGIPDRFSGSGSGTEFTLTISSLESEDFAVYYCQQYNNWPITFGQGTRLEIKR
EC50 [1]: 0.00193 µg/mL
EC50 [2]: 0.00577 µg/mL
EC50 [3]: 0.0123 µg/mL
EC50 [4]: 0.0649 µg/mL
binding result [5]: no binding (tested: 200 nM highest concentration)
Kd [6]: 18.3 nM
Kd [7]: 1.24 nM
Kd [8]: 0.783 nM
CDC: EC50 of killing of target cell CHO-S-B7-H3-4Ig with 10% guinea pig serum complement [9]: 2.92 µg/mL
EC50 [10]: 0.00967 µg/mL
Endocytosis EC50 on HCC827 cells (PHrodo, flow cytometry) [11]: 0.0102 µg/mL
Endocytosis EC50 on HCC1806 cells (PHrodo, flow cytometry) [11]: 0.0206 µg/mL
Endocytosis EC50 on NCI-N87 cells (PHrodo, flow cytometry) [11]: 0.0122 µg/mL
